Results taken from US20230405119A1 (CITY OF HOPE, published 2023).

T1: immobilized recombinant IL13Rα1 (UniProt P78552 22-343, limits assumed)
T1 construct: also called IL13Ra1
T1 sequence (looked up): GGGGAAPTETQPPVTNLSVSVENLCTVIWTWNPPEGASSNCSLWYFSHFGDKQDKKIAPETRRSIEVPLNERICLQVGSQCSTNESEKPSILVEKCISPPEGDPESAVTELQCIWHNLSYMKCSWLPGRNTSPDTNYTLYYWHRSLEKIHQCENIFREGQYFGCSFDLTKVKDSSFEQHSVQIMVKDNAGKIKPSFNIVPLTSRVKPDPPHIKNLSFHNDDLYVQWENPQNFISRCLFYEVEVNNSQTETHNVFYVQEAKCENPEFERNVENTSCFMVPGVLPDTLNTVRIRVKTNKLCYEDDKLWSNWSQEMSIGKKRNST

T2: immobilized IL13Rα2 (UniProt Q14627 27-343, limits assumed)
T2 construct: also called IL13Ra2
T2 sequence (looked up): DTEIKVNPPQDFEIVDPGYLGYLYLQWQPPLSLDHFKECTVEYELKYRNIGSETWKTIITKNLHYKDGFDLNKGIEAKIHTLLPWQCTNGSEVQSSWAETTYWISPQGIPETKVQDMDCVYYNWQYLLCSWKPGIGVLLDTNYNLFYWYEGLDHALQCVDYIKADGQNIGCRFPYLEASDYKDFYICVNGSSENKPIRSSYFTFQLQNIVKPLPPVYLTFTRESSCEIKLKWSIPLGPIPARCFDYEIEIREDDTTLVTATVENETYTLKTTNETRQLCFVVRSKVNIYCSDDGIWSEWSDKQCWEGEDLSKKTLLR


Key:
[1] = target: T1, immobilized recombinant IL13Rα1; experiment: yeast-displayed IL13 variant; surface plasmon resonance with immobilized recombinant receptor, as the filing words it
Source text: (§1) In an effort to identify IL13 variants with increased selectivity for binding IL13Rα2 relative to IL13Rα1. To assess receptor binding various mutants were compared to wild-type IL13 ([…] […]; SEQ ID NO: 1) and the previously known […] E11Y mutant ([…] […]; SEQ ID NO: 69). […] Surface plasmon resonance with immobilized recombinant IL13Rα1 and immobilized IL13Rα2 was used to assess binding affinity. As expected, WT bound strongly to both IL13Rα1 and IL13Rα2.

[2] = target: T2, immobilized IL13Rα2; experiment: yeast-displayed IL13; surface plasmon resonance with immobilized recombinant receptor, as the filing words it
Source text: as §1

Row | binding result [1] | Kd [2] [nM] | Binder
1 | no binding | 28 | IL13 variant RLK (E11R: E90L: R107K) (ligand, display scaffold not described) GPVPPSTALRRLIEELVNITQNQKAPLCNGSMVWSINLTAGMYCAALESLINVSGCSAIEKTQRMLSGFCPHKVSAGQFSSLHVRDTKILVAQFVKDLLLHLKKLFKEGRFN
2 | no binding | 26 | IL13 variant YLK (E11Y: E90L: R107K) (ligand, display scaffold not described) GPVPPSTALRYLIEELVNITQNQKAPLCNGSMVWSINLTAGMYCAALESLINVSGCSAIEKTQRMLSGFCPHKVSAGQFSSLHVRDTKILVAQFVKDLLLHLKKLFKEGRFN
